The values below come from paper PMC4175178.

The assay has as its target 60S ribosomal subunit-nascent chain complex made from F-VHP-β RNCs (not stated | rabbit (endogenous in reticulocyte lysate, RRL)) (UniProt G1TSG1).

In turn, “FLAG-tagged human Listerin (from UniProt O94822 1-1766) (enzyme)” showed a ubiquitination of 60S versus 80S nascent chain complexes, separated on a sucrose gradient and given purified Listerin, E1, E2, ubiquitin and ATP (Figure S4E) of 10 fold.
